# Assays:
# AncSZ = assay: phosphorylation enrichment, bacterial display (enrichment ratio); higher = better substrate or ligand; peptides without Tyr show the background
# EPHB1 = EPHB1 (UniProt P54762); assay: as above
# EPHB2 = EPHB2 (UniProt P29323); assay: as above
# FGFR1 = FGFR1 (UniProt P11362); assay: as above
# FGFR3 = FGFR3 (UniProt P22607); assay: as above
# Fer (mouse) = assay: as above
# Fes = Fes (UniProt P07332); assay: as above
# Fyn = Fyn (UniProt P06241); assay: as above
# Hck = Hck (UniProt P08631); assay: as above
# Sequence of Hck (P08631 whole entry, looked up): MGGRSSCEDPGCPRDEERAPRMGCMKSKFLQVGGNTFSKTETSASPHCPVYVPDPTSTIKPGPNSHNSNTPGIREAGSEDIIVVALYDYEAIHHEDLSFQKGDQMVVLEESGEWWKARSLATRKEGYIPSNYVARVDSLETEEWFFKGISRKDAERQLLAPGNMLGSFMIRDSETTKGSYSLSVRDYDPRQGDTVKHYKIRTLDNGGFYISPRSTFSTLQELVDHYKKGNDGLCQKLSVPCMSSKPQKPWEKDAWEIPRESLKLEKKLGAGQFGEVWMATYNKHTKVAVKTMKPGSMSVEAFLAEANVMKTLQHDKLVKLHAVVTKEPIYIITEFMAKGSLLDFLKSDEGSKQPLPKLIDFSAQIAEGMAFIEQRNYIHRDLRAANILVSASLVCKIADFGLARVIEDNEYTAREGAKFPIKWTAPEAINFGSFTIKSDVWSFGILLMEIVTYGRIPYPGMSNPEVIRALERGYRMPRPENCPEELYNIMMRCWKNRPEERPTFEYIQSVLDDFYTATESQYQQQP
# Jak2 = Jak2 (UniProt O60674); assay: as above
# Sequence of Jak2 (O60674 whole entry, looked up): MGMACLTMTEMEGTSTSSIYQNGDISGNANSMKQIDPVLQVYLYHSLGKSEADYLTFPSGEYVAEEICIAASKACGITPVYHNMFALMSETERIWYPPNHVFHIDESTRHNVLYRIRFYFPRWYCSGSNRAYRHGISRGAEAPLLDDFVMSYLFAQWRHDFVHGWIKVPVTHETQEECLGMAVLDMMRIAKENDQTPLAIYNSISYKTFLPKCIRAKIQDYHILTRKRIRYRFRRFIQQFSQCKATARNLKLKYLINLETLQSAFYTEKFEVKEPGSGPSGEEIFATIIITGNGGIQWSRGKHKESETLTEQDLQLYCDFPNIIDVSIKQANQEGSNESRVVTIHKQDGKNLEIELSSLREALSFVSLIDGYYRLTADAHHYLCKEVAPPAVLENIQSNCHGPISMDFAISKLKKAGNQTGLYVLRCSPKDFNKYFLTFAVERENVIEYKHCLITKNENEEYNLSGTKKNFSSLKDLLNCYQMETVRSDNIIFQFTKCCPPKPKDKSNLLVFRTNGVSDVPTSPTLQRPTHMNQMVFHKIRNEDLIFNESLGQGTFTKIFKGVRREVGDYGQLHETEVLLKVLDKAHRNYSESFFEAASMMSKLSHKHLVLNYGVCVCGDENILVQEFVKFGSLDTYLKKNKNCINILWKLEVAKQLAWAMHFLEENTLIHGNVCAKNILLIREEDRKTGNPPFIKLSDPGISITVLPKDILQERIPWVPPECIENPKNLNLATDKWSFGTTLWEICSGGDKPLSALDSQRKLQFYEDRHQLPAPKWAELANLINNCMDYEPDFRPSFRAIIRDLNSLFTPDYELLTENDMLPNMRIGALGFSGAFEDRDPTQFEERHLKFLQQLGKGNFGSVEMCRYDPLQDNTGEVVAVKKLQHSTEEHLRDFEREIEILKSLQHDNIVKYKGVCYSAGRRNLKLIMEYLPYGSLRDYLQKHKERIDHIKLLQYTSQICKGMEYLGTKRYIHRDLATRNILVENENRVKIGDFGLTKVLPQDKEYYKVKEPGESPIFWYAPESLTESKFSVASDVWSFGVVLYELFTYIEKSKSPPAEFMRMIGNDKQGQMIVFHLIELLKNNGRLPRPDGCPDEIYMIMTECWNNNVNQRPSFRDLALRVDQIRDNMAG
# MERTK = MERTK (UniProt Q12866); assay: as above
# Sequence of MERTK (Q12866 whole entry, looked up): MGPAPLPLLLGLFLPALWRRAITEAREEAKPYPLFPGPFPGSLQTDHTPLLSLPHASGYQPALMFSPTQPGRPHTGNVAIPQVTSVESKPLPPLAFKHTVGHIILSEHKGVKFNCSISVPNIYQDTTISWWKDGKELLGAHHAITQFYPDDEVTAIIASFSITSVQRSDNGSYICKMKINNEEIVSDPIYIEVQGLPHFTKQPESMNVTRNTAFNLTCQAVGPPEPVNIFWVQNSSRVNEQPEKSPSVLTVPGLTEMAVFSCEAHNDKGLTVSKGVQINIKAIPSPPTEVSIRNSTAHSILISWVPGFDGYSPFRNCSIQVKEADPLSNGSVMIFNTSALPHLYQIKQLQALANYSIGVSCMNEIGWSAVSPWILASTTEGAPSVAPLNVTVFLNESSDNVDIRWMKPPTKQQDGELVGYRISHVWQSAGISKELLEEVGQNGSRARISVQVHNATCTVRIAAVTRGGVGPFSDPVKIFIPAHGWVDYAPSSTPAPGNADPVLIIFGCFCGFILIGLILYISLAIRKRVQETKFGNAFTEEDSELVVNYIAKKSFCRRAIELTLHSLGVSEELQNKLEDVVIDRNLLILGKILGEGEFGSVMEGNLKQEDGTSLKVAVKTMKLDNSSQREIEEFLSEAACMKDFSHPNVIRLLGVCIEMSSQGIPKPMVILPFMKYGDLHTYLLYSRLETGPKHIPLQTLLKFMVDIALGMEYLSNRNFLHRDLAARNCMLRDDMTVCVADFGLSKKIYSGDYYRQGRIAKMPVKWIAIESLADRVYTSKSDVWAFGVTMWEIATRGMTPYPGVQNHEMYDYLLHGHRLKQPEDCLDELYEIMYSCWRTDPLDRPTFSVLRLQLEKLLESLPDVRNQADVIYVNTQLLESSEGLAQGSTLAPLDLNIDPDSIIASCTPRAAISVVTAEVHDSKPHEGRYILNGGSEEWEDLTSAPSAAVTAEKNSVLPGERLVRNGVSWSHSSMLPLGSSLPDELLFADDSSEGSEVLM
# c-Abl (mouse) = assay: as above
# c-Src = assay: as above
# Grb2 SH2 = Grb2 SH2 (UniProt P62993); assay: SH2 binding enrichment of the phosphorylated peptide, bacterial display (enrichment ratio); higher = better substrate or ligand; peptides without Tyr show the background
# SHP2-C SH2 = assay: as above
# c-Src SH2 = assay: as above
# 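Throughout, for SH2 binding enrichment of the phosphorylated peptide, bacterial display: peptide library displayed on the E. coli surface as eCPX fusions, selected cells deep-sequenced, score is each peptide's frequency after selection divided by its frequency in the input.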
# 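Throughout, for phosphorylation enrichment, bacterial display: 11-residue human phosphosite peptides and single-mutation variants displayed on the E. coli surface, counted by deep sequencing, each peptide's frequency after selection divided by its frequency in the unselected input library; frequency after pTyr selection over input frequency; kinase dosed for 20-30% of maximal phosphorylation in three min.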
# Sequence of FGFR3 (P22607 whole entry, looked up): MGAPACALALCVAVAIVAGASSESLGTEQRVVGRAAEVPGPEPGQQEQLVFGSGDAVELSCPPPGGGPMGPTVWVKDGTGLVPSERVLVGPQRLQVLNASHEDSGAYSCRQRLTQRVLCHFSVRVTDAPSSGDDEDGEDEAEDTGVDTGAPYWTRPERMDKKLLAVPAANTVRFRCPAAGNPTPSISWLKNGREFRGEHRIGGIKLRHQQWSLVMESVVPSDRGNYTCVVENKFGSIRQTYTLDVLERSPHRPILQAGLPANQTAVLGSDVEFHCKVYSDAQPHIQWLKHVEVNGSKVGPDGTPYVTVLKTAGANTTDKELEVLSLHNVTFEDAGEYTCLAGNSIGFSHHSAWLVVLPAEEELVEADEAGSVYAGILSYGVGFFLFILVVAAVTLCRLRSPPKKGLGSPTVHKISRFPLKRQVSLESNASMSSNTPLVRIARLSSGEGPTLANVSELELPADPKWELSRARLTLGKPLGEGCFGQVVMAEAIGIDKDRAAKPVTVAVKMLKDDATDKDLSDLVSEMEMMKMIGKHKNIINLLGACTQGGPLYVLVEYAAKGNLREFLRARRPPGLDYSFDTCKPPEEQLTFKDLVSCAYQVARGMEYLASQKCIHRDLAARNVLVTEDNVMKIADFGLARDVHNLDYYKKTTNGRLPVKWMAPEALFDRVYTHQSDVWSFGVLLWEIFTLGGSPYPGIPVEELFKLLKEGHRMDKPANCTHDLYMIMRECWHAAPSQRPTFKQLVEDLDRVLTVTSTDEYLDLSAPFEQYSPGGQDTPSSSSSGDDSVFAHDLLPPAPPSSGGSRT
# Sequence of Fes (P07332 whole entry, looked up): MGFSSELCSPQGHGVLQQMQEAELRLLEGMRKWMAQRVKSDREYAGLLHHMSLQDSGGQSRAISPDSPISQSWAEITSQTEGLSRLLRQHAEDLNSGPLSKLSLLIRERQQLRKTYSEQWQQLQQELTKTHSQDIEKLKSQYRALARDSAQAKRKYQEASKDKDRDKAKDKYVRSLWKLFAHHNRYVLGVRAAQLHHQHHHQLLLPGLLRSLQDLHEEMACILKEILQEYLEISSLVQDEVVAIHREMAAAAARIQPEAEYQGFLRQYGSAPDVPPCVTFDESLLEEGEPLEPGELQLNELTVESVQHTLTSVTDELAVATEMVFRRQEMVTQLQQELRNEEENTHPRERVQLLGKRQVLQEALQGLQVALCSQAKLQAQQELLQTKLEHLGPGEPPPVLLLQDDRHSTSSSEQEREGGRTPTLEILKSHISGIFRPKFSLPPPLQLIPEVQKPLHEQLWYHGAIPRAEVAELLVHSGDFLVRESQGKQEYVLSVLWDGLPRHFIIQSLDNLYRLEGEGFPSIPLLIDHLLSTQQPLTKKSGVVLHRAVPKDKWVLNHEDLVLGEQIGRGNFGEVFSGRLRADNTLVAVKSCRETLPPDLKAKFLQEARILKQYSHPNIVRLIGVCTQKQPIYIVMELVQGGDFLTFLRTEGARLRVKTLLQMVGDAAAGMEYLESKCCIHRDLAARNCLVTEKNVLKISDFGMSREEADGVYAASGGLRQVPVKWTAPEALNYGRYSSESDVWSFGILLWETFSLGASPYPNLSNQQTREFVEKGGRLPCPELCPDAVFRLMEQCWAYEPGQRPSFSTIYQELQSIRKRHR
# Sequence of Fyn (P06241 whole entry, looked up): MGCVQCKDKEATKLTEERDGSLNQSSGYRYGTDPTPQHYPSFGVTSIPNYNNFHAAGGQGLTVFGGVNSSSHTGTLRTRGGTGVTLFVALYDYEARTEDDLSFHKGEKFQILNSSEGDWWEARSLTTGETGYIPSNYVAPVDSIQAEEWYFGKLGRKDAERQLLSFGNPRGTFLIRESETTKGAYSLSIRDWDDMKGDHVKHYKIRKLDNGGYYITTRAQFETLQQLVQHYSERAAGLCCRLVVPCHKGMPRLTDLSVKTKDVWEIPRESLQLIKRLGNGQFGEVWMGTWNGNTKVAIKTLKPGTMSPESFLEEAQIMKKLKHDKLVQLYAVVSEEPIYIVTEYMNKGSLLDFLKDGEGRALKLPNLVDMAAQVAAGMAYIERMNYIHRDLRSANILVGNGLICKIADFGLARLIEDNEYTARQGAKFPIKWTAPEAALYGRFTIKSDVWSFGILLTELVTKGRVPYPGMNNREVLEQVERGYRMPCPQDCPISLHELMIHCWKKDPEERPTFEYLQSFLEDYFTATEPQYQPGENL
Sequence,SH2 binding enrichment (Grb2 SH2),SH2 binding enrichment (SHP2-C SH2),SH2 binding enrichment (c-Src SH2),phosphorylation enrichment (AncSZ),phosphorylation enrichment (EPHB1),phosphorylation enrichment (EPHB2),phosphorylation enrichment (FGFR1),phosphorylation enrichment (FGFR3),phosphorylation enrichment (Fer (mouse)),phosphorylation enrichment (Fes),phosphorylation enrichment (Fyn),phosphorylation enrichment (Hck),phosphorylation enrichment (Jak2),phosphorylation enrichment (MERTK),phosphorylation enrichment (c-Abl (mouse)),phosphorylation enrichment (c-Src)
VTQEQYELHCE [CBL_Y368_Y371H],0.656,0.48,0.571,1.2,0.708,0.601,0.542,0.874,0.736,1.35,0.576,0.479,1.1,0.37,0.791,0.52
VSNFNYFYHRE [KCNA1_Y413],1.07,1.9,0.795,1.01,0.614,0.549,1.66,1.86,0.404,0.999,0.433,0.501,0.943,0.47,0.874,0.512
IPGVEYLVSII [TNC_Y1775],1,0.944,0.648,1.02,0.667,0.574,0.552,0.723,0.445,1.14,0.432,0.491,1.19,0.409,0.664,0.5

# More lines, main results first:
SH2 binding enrichment (Grb2 SH2),SH2 binding enrichment (SHP2-C SH2),SH2 binding enrichment (c-Src SH2),Sequence,phosphorylation enrichment (AncSZ),phosphorylation enrichment (EPHB1),phosphorylation enrichment (EPHB2),phosphorylation enrichment (FGFR1),phosphorylation enrichment (FGFR3),phosphorylation enrichment (Fer (mouse)),phosphorylation enrichment (Fes),phosphorylation enrichment (Fyn),phosphorylation enrichment (Hck),phosphorylation enrichment (Jak2),phosphorylation enrichment (MERTK),phosphorylation enrichment (c-Abl (mouse)),phosphorylation enrichment (c-Src)
0.864,0.577,0.607,VITDFYVDMKF [MPP4_Y567_YF],1.23,1.31,0.824,1.42,1.36,0.925,1.32,0.457,0.624,1.27,0.52,0.727,0.503
0.875,0.601,0.515,VEDQFYRVDCF [FHL1_Y208_C209R_YF],1.16,0.692,0.587,0.522,0.831,0.559,1.34,0.693,0.551,1.24,0.557,0.863,1.1

# Reference: the supplement of paper PMC10065799, “High-throughput profiling of sequence recognition by tyrosine kinases and SH2 domains using bacterial peptide display” (eLife, 2023)
